Values belong to the binder of their own block, whether it stands above or below them.
Key:
Assay in all cases: holdup assay
Parameters in all cases: key: below the threshold = too weak to quantify, mostly under pKd 3.1 to 4
Conditions in all cases: plain residues with an end cap or a label only (N-terminal biotin on a linker: ado-ado)
PDZD2_2, O15018 = biological target: T1, PDZD2_2, O15018
T1 sequence (O15018 329-429, limits assumed, looked up): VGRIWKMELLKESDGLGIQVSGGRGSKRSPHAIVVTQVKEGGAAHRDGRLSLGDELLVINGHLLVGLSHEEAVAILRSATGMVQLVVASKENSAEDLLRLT

Inadl_8, Q8NI35 = biological target: Inadl_8, Q8NI35
Inadl_8, Q8NI35, sequence (Q8NI35 1425-1530): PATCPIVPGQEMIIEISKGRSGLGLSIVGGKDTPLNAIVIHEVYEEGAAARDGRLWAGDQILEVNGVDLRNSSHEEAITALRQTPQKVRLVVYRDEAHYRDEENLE

GRIP2_3, Q9C0E4 = biological target: GRIP2_3, Q9C0E4
GRIP2_3, Q9C0E4, sequence (Q9C0E4 238-339): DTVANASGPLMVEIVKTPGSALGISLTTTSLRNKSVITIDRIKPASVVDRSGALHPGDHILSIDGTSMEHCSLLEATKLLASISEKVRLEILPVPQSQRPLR

Inadl_10, Q8NI35 = biological target: Inadl_10, Q8NI35
Inadl_10, Q8NI35, sequence (Q8NI35 1673-1763): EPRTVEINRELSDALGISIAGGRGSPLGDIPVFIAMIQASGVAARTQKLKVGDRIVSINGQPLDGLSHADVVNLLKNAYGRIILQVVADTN

MAGI2_5, Q86UL8 = biological target: MAGI2_5, Q86UL8
MAGI2_5, Q86UL8, sequence (Q86UL8 915-1017): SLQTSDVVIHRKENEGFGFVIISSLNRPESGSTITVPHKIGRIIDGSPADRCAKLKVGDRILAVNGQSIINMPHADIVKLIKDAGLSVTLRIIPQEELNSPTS

SYNJ2BP, P57105 = biological target: T2, SYNJ2BP, P57105
T2 sequence (P57105 8-110, limits assumed, looked up): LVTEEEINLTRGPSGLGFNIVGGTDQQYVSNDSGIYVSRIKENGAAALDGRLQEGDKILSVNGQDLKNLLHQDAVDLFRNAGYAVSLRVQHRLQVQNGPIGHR

FRMPD4, Q14CM0 = biological target: FRMPD4, Q14CM0
FRMPD4, Q14CM0, sequence (Q14CM0 67-160): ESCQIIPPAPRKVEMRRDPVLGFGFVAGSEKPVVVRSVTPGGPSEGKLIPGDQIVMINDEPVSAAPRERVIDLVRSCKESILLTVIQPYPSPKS

DLG4_3, P78352 = biological target: DLG4_3, P78352
DLG4_3, P78352, sequence (P78352 306-403): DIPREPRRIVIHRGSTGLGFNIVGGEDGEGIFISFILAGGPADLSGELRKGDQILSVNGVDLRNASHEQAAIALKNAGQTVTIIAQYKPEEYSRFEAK

SCRIB_2, Q14160 = biological target: SCRIB_2, Q14160
SCRIB_2, Q14160, sequence (Q14160 857-960): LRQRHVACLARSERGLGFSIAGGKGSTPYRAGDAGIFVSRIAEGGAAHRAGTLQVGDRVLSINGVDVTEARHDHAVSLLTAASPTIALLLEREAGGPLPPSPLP

DLG5_1, Q8TDM6 = biological target: DLG5_1, Q8TDM6
DLG5_1, Q8TDM6, sequence (Q8TDM6 617-713): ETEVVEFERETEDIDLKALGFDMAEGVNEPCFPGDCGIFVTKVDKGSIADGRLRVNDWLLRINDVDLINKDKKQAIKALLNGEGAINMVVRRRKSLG

IL16_3, Q14005 = biological target: IL16_3, Q14005
IL16_3, Q14005, sequence (Q14005 1107-1207): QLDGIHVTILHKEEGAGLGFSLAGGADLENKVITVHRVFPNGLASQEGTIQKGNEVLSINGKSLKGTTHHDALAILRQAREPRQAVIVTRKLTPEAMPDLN

Inadl_5, Q8NI35 = biological target: Inadl_5, Q8NI35
Inadl_5, Q8NI35, sequence (Q8NI35 673-780): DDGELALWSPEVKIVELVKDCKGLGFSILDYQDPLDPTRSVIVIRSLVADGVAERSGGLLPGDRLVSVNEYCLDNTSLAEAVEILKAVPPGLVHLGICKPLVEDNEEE

TX1BP3, O14907 = biological target: T3, TX1BP3, O14907
T3 sequence (O14907 10-122, limits assumed, looked up): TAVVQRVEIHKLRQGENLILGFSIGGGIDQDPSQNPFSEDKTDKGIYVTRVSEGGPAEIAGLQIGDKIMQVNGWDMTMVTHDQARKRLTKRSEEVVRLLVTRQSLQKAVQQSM

LNX1_2, Q8TBB1 = biological target: LNX1_2, Q8TBB1
LNX1_2, Q8TBB1, sequence (Q8TBB1 371-470): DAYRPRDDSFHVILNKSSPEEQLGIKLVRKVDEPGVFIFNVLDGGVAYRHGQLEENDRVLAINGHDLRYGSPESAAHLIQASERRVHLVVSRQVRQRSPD

GORASP1, Q9BQQ3 = biological target: GORASP1, Q9BQQ3
GORASP1, Q9BQQ3, sequence (Q9BQQ3 1-208): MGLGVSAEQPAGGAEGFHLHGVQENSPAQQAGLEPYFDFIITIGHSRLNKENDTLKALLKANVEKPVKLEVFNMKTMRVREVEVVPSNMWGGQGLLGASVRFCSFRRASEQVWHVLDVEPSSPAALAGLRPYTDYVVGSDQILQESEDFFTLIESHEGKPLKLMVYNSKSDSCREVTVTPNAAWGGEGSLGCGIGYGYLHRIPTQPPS

MAGI2_3, Q86UL8 = biological target: MAGI2_3, Q86UL8
MAGI2_3, Q86UL8, sequence (Q86UL8 600-682): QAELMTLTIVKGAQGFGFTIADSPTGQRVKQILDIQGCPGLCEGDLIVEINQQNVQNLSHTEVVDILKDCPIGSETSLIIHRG

DFNB31_2, Q9P202 = biological target: T4, DFNB31_2, Q9P202
T4 sequence (Q9P202 274-371, limits assumed, looked up): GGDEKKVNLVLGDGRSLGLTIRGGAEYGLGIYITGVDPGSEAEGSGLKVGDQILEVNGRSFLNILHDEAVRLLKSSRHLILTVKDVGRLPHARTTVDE

HTRA3, P83110 = biological target: T5, HTRA3, P83110
T5 sequence (P83110 354-453, limits assumed, looked up): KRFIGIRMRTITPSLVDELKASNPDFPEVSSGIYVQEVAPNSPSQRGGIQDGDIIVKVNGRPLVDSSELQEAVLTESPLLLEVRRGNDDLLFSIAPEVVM

ARHGAP21, Q5T5U3 = biological target: T6, ARHGAP21, Q5T5U3
T6 sequence (Q5T5U3 45-169, limits assumed, looked up): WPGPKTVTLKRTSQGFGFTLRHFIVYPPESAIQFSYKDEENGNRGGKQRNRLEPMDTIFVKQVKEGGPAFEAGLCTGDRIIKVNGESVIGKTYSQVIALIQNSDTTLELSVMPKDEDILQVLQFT

LIN7A, O14910 = biological target: T7, LIN7A, O14910
T7 sequence (O14910 103-200, limits assumed, looked up): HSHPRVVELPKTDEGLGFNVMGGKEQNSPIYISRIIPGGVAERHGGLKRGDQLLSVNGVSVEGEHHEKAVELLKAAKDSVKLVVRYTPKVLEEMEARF

PICK1, Q9NRD5 = biological target: PICK1, Q9NRD5
PICK1, Q9NRD5, sequence (Q9NRD5 17-115): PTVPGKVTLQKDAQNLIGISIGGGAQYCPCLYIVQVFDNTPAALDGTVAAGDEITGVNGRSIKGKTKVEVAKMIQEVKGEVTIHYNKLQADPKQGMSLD

HTRA1, Q92743 = biological target: HTRA1, Q92743
HTRA1, Q92743, sequence (Q92743 360-477): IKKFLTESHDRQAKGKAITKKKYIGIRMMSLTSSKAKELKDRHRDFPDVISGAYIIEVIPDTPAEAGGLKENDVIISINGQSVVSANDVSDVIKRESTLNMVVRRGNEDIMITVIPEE

DLG2_2, Q15700 = biological target: DLG2_2, Q15700
DLG2_2, Q15700, sequence (Q15700 189-283): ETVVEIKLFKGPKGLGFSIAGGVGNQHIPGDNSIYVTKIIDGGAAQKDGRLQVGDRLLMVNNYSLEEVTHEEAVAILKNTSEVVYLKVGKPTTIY

GRIP1_7, Q9Y3R0 = biological target: T8, GRIP1_7, Q9Y3R0
T8 sequence (Q9Y3R0 999-1096, limits assumed, looked up): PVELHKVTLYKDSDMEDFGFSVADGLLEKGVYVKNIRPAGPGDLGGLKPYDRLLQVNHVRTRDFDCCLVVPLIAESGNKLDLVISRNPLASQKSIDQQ

FRMPD2_1, Q68DX3 = biological target: FRMPD2_1, Q68DX3
FRMPD2_1, Q68DX3, sequence (Q68DX3 770-861): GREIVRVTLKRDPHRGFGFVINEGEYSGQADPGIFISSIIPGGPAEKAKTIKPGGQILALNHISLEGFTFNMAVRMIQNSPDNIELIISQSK

MAGI3_2, Q5TCQ9 = biological target: MAGI3_2, Q5TCQ9
MAGI3_2, Q5TCQ9, sequence (Q5TCQ9 398-503): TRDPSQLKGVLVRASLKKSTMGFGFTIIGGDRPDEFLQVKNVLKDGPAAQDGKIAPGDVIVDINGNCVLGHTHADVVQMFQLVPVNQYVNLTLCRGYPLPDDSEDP

TJP1_2, Q07157 = biological target: TJP1_2, Q07157
TJP1_2, Q07157, sequence (Q07157 181-274): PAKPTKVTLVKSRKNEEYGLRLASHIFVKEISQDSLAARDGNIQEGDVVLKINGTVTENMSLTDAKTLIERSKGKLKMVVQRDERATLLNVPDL

GRID2IP_2, A4D2P6 = biological target: GRID2IP_2, A4D2P6
GRID2IP_2, A4D2P6, sequence (A4D2P6 272-370): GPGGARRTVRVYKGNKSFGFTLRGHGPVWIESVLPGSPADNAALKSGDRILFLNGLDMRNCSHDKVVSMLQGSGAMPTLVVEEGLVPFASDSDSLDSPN

Inadl_2, Q8NI35 = biological target: Inadl_2, Q8NI35
Inadl_2, Q8NI35, sequence (Q8NI35 238-335): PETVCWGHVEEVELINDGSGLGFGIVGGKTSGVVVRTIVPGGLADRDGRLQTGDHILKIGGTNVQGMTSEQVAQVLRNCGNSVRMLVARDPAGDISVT

- pKd (PDZD2_2, O15018): below the threshold
- pKd (Inadl_8, Q8NI35): below the threshold
- pKd (GRIP2_3, Q9C0E4): below the threshold
- pKd (Inadl_10, Q8NI35): below the threshold
- pKd (MAGI2_5, Q86UL8): below the threshold
- pKd (SYNJ2BP, P57105): below the threshold
- pKd (FRMPD4, Q14CM0): below the threshold
- pKd (DLG4_3, P78352): below the threshold
- pKd (SCRIB_2, Q14160): below the threshold
- pKd (DLG5_1, Q8TDM6): below the threshold
- pKd (IL16_3, Q14005): below the threshold
- pKd (Inadl_5, Q8NI35): below the threshold
- pKd (TX1BP3, O14907): below the threshold
- pKd (LNX1_2, Q8TBB1): below the threshold
- pKd (GORASP1, Q9BQQ3): 4.82
- pKd (MAGI2_3, Q86UL8): below the threshold
- pKd (DFNB31_2, Q9P202): below the threshold
- pKd (HTRA3, P83110): 3.89
- pKd (ARHGAP21, Q5T5U3): below the threshold
- pKd (LIN7A, O14910): below the threshold
- pKd (PICK1, Q9NRD5): below the threshold
- pKd (HTRA1, Q92743): 4.64
- pKd (DLG2_2, Q15700): below the threshold
- pKd (GRIP1_7, Q9Y3R0): below the threshold
- pKd (FRMPD2_1, Q68DX3): below the threshold
- pKd (MAGI3_2, Q5TCQ9): below the threshold
- pKd (TJP1_2, Q07157): below the threshold
- pKd (GRID2IP_2, A4D2P6): below the threshold
- pKd (Inadl_2, Q8NI35): below the threshold
B1: JAM3, Q9BX67 (peptide)
chain: DFRHKSSFVI

- pKd (PDZD2_2, O15018): 4.2
- pKd (Inadl_8, Q8NI35): 3.73
- pKd (GRIP2_3, Q9C0E4): below the threshold
- pKd (Inadl_10, Q8NI35): below the threshold
- pKd (MAGI2_5, Q86UL8): below the threshold
- pKd (SYNJ2BP, P57105): 4.64
- pKd (FRMPD4, Q14CM0): below the threshold
- pKd (DLG4_3, P78352): below the threshold
- pKd (SCRIB_2, Q14160): 4.04
- pKd (DLG5_1, Q8TDM6): below the threshold
- pKd (IL16_3, Q14005): below the threshold
- pKd (Inadl_5, Q8NI35): below the threshold
- pKd (TX1BP3, O14907): 4.72
- pKd (LNX1_2, Q8TBB1): below the threshold
- pKd (GORASP1, Q9BQQ3): below the threshold
- pKd (MAGI2_3, Q86UL8): below the threshold
- pKd (DFNB31_2, Q9P202): below the threshold
- pKd (HTRA3, P83110): below the threshold
- pKd (ARHGAP21, Q5T5U3): 3.98
- pKd (LIN7A, O14910): below the threshold
- pKd (PICK1, Q9NRD5): below the threshold
- pKd (HTRA1, Q92743): below the threshold
- pKd (DLG2_2, Q15700): 3.87
- pKd (GRIP1_7, Q9Y3R0): below the threshold
- pKd (FRMPD2_1, Q68DX3): below the threshold
- pKd (MAGI3_2, Q5TCQ9): 5.13
- pKd (TJP1_2, Q07157): below the threshold
- pKd (GRID2IP_2, A4D2P6): below the threshold
- pKd (Inadl_2, Q8NI35): below the threshold
B2: ADRB1, P08588 (peptide)
chain: RPGFASESKV

— PMC9482650, “Quantitative fragmentomics allow affinity mapping of interactomes” (Nature Communications, 2022)
